We go through 19 variants from the RNAGym collection of RNA variant scans (doi:10.1073/pnas.2313332121).

This sample holds only a part of the variants without activity.

To fix the notation:
B1: TPR 5TU (parent)
chain: GGAUCUUCUCGAUCUAACAAAAAAGACAAAUCUGCCACAAAGCUUGAGAGCAUCUUCGGAUGCAGAGGCGGCAGCCUUCGGUGGCGCGAUAGCGCCAACGUUCUCAACUAUGACACGCAAAACGCGUGCUCCGUUGAAUGGAGUUUAUCAUG

The data set covers variants of B1. Put plainly: polymerase ribozyme fitness, log enrichment relative to wild type (log ratio); higher = more active; in vitro selection for triplet polymerase activity. The method in brief:
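Mutant libraries of each subunit of a heterodimeric triplet polymerase ribozyme were built by PCR and transcribed. Each library went through one round of in vitro selection in triplicate: annealing with biotinylated primer, partner subunit and triplets, frozen incubation at −7 °C, gel excision of extended constructs, streptavidin-bead capture and RT-PCR. Input and output libraries were Illumina-sequenced; only genotypes with ≥10 input reads and ≥1 read per output were kept. Fitness is log2(genotype enrichment/wild-type enrichment), using inverse-variance-weighted replicate averages.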
Consider GGUUCUUCUCGAUCUAACAAAAAAGACAAGUCUGGCACUAAGCUUGAGAGCAUCUUCGACUGCAGAGGCGGCAGCCUUCGGUGGCGUGAUAGCGCCAACGUUCUCAACUAUGACACGCAAAACGCGUGCUCCGAUGAAUGGAGUUUAUCAUG [A3U A30G C35G A39U G59A A60C C87U U134A], for which the “polymerase ribozyme fitness (log ratio)” value is at most -4.2.

Turning to GGUUCUUCUCGAUCUAACAAAAAAGACAAAUCUGCCUCAAAGCUUGAGAGCAUCUUCGGAUGCAGAGGCGGCAGCCUUCGGUGGCGCGAUAGCGCUAACGUUCUCAACUAUGACACGGAAAACGCGUGCUCCGUUGAAUGGAGUUUAUCAUG [A3U A37U C96U C118G], the “polymerase ribozyme fitness (log ratio)” value was -3.38.

GGUUCUUCUCGAUCUAACAAAAAAGACAAAUCUGCCACAAAGCUUGAGAGCGUCUUCGGAUGCAGAGGCGGCAGCCUUCGGUGGCGCGAUAGCGCGAACGUUCUCAACUAUGACACGCAAAACGCGUGCUUCGUUGAAUGGAGUUUAUCAUG [A3U A52G C96G C131U]: the “polymerase ribozyme fitness (log ratio)” value was -0.0465.

Regarding GGUUCUUCUCGAUCUAACAAAAAAGACAGAUCUGCCACAAAGCUUGAGCGCAUCUUCGGAUGCAGAGGCGGCAGCCUUCGGUGGCGCGAUAACGCCAACGUUCUCAACUAUGACACGCAAAACUCGUGCUCCGUUGAAUAGAGUUUAUCAUG [A3U A29G A49C G92A G124U G140A], the “polymerase ribozyme fitness (log ratio)” value was at most -4.2.

Take GGUUCUUCUCGAUCUAACAAAAAAGACAAAUCUGCCACAAAGCUUGAGAGCAUCUUCGGGUGCAGAGGCCGCAGCCUUCCGUGGCACGAUAGCGCCAACGUUCUCAACUAUGACACGCAAAACGCGUGCUCCGUGGAAUGGAGAUUAUCAUG [A3U A60G G70C G80C G86A U135G U144A]: the “polymerase ribozyme fitness (log ratio)” value is at most -4.2.

For the variant GGUUCUUCUCGAUCUAACAAAAAAGACAAAUCUGCCACAAAGCUUGAGAGCAUCUUCGGAUGCAGAGGCGGCAGCCUUCGGUGGCGCGAUCGCGCCAACGUUCUCAACUAUGACACGCAAAACGCGUGCUCCGUUGAAUGGAGUUUAUCAUG [A3U A91C], the “polymerase ribozyme fitness (log ratio)” value was -3.34.

For the variant GGUUCUUCUCGAUCUAACAAAAAAGACAAAUCUGCCACAAAGCUUGAGUGCAUCCUCGGAUGCAGAGGCGGCAGCCUUCGGUGGCGCGAUUGCGCCAACGUUCUCAACUAUGACACGCAAAACGCGUGCUCCGUUGAAUGGAGUUUAUCAUG [A3U A49U U55C A91U], the “polymerase ribozyme fitness (log ratio)” value was at most -4.2.

With GGUUCUUCUCGAUCUAACAAAAAAGACACAUCUGCCACAAAGCUUGAGAGCAUCUUCGGACGCAGAGGCGGCAGCCUUCGGUGGCGCGAUAGCGCCAACGUUCUCAACUAUGACACGCAAAACGCGUGCUCCGUUGAAUGGAGUUUAUCAUG [A3U A29C U61C], the “polymerase ribozyme fitness (log ratio)” value was at most -4.2.

Consider GGUUCUUCUCGAUCUAACAAAAAAGACAAAUCUGCCACAAAGCUUGCGAGCAUCUUAGGAUGCAGAGGCGGCAGCCUUCGGUGGCGCGAUAGCGCCAACGUUCUCAACUAUGACACGCAAAACGCGUGCUCCGUUGAAUGGAGUUUAUCAUG [A3U A47C C57A], for which the “polymerase ribozyme fitness (log ratio)” value is -0.307.

As to GGUUCUUCUCGAUCUAACAAAAAAGACCAAUCUGCCACAAAGCUUGAGAGCAUCUUCGGAUGUAGAGGCGGCAGCCUUCGGUGGUGCGAUAGCGCCAACGUUCUCAACUAUGACACGCAAAACGCGUGCUCCGUUGAAUGGCGUUUAUCAUU [A3U A28C C63U C85U A142C G152U], the “polymerase ribozyme fitness (log ratio)” value is -3.91.

Take GGUUAUUCUCGAUCUAACAAAAAAGACAAUUCUGCCACUAAGCUUGAGUGCAUCUUCGGAUGCAGAGGCGGCAGCCUUCGGUGGCGCGAUAGCGCCAAUGUUCUCAACUAUGACACGCAAAACACGUGCUCCGUUGAAUGGAGUUUAUCAUG [A3U C5A A30U A39U A49U C99U G124A]: the “polymerase ribozyme fitness (log ratio)” value is at most -4.2.

As to GGUUCUUCUCGAUCUAACAAAAAAGACAAUUCUGCCACAAAGCUUGAGAGCAUCUUCGGAUGCAGAGGCGGCAGCCUUCGGUGGCUUGAUAGCGCCAACGUUCUCAACUAUGACACGCAAAACGCGUGCUCCGUUGAAUGGAGUUUAUCAUG [A3U A30U G86U C87U], the “polymerase ribozyme fitness (log ratio)” value is at most -4.2.

On to GGUUCUUCUCGAUCUAACAAAAAAGACAAAUCUGCCACAAAGCUUGAGAGCCUCUUCGGAUGCAGAGGCGGCAGCCUUCGGUGGCUCGAUAGCGCCAACGUUCUCAACUAUGACACGCUAAACGCGUGCUCCGUUGAAUGUAGUUUAUCAUG [A3U A52C G86U A119U G141U], for which the “polymerase ribozyme fitness (log ratio)” value is -3.78.

Turning to GGUUCUUCUCGAUCUAACAAAAAAGACAAAUCUGCCACAAAGCUUGCGAGCAUCUUCGGAUGCAGAGGCGGCAGCCUUCGGUGGCGCGAUAGCGCCAACGUUCUUAACUAUGACACGCACAACACGUGCUCCGUUGAAUGGAGUUUAUCAUG [A3U A47C C105U A120C G124A], the “polymerase ribozyme fitness (log ratio)” value was -1.78.

Consider GGUUCUUCUCGAUCUAACAAAAAAGACCAAUCUGCCACAAAGCUUGAGAGCAUCGGCGGAUGGAGAGGCGGCAGCCUUCGGUGGCCCGAUCGCGCCAACGUUCUCAACUAUGACACGCAAAACGCGUGCUCCGUUGAAUGGAGUUUAUCAUG [A3U A28C U55G U56G C63G G86C A91C], for which the “polymerase ribozyme fitness (log ratio)” value was at most -4.2.

As for GGUUCUUCUCGAUCUAACAAAAAAGACAAGUCUGCCACAAAGCUUGAGAGCAUCUUCGGAUGCAGAGGCGGCAGCCUUCGGUGGCGCGAUAGCGCCAACGUUCCAAACUAUGAGGCGCAAAGCGCGUGAUCCGUUGAAUGGAGUUUAUCAUG [A3U A30G U104C C105A C114G A115G A122G C129A], the “polymerase ribozyme fitness (log ratio)” value is at most -4.2.

For the variant GGUUCUUCUCGAUCUAACAAAAAAGACAAAUCUGCCACAAAGCUUGAGAGCAUCUUCGGAUGCAGAGGCGGCGGCCUUCGGUGGCUCGAUAGCGCCAACGUUCUCAACUAUGACACGCAAAACGCGUGAUCCGUUGGAUGGAGUUUAUCAUG [A3U A73G G86U C129A A137G], the “polymerase ribozyme fitness (log ratio)” value is at most -4.2.

GGUUCUUCUCGAUCUAACAAAAAAGACCAAUCUGCCACAAAGCUUGAGAGCAUCUUCGGAUGCAGAGGCGGCAGCCUUCGGUGACGCGAUAGCGCCAACGUUCUCAACUAUGACACUCUAAACUCGUGCUCCGUUGAAUGGAGUUUAUCAUG [A3U A28C G84A G117U A119U G124U]: the “polymerase ribozyme fitness (log ratio)” value was at most -4.2.

On to GGUUCUUCUCGAUCUAACAAAAAAGACAAAUCUGCCACAAAGCUUGCGAGCAUCUUCGGAUGCAGAGGCGGCAGCCUUCGGUGGCGCGAUAGUGCCAACGUUCUCAACUAUGACACGUAAAACGCGUGCUCCGUUGAAUGGAGUUUAUCAUG [A3U A47C C93U C118U], for which the “polymerase ribozyme fitness (log ratio)” value is -2.05.
